Data set [1] has as its target T1, ArcA (chromosomal) (Escherichia coli, UniProt P0A9Q1 P0A9Q1:1-238).
T1 sequence: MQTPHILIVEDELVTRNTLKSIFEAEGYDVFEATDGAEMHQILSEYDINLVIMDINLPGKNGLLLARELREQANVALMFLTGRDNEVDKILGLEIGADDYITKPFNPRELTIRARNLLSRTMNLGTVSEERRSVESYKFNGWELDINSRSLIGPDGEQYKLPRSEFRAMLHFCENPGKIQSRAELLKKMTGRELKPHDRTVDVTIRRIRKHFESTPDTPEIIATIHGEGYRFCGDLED
The experiment in a line: cell_activity; anaerobic lacZ fusion; repression largely relieved with O2. As to the method: (§1) Strains containing P1icdA-lacZ were grown in minimal media with 0.2% glucose. Fold repression was calculated by dividing the β-galactosidase activity of a ΔarcA strain (e.g., 803 Miller units for wt P1icdA-lacZ without O₂) by the activity of an arcA⁺ strain (e.g., 57 Miller units for wt P1icdA without O₂). The 10-bp DRs are indicated by open boxes with an X representing a DR element for which the repressive activity has been eliminated by mutation, and asterisks denoting DRs that have been mutated towards consensus (see FIG. 1C). (A) Effects of mutations away from consensus within each DR element, assayed under anaerobic conditions (—O₂). (B) The effect of mutations towards consensus within each DR element, assayed under anaerobic conditions. The dotted line represents anaerobic ArcA-dependent repression of wt P1icdA. (C) The effect of mutations towards consensus within each DR element, assayed under aerobic conditions. […]
(§2) β-galactosidase assays—All strains were grown in MOPS minimal medium (Neidhardt et al., 1974) with 0.2% glucose at 37° C. and sparged with a gas mix of 95% N₂ and 5% CO₂ (anaerobic) or 70% N₂, 5% CO₂, and 25% O₂ (aerobic). […] Standard errors for data plotted as ‘fold repression’ were calculated using a propagation of standard error formula (Ku, J. Res. National Bureau of Standards 70C:263-273 (1966)).

The target of data set [2] is T1, ArcA (chromosomal). The experiment in a line: cell_activity; anaerobic; aerobic repression nearly the same, no longer O2 sensitive. As to the method:
as §1, §2

Data set [3] has as its target T1, ArcA (chromosomal). The experiment in a line: cell_activity; anaerobic. As to the method: P1icdA expression in the construct with a fourth DR element was about 18% higher in a ΔarcA background compared to the other strains tested (data not shown).
How ArcA binding to each DR element contributes to icdA repression was determined by measuring β-galactosidase activity produced from P1icdA-lacZ transcriptional fusions containing the GT-to-CA (5′-TGTTA-3′ to 5′-TCATA-3′) (SEQ ID NO:2; SEQ ID NO:4, respectively) mutations within each DR element under anaerobic conditions. […] P1izcdA was repressed 14-fold by ArcA (FIG. 3A). […]
β-galactosidase assays—All strains were grown in MOPS minimal medium (Neidhardt et al., 1974) with 0.2% glucose at 37° C. and sparged with a gas mix of 95% N₂ and 5% CO₂ (anaerobic) or 70% N₂, 5% CO₂, and 25% O₂ (aerobic). […] To terminate cell growth and any further protein synthesis, chloramphenicol (final concentration, 20 μg/ml) or tetracycline (final concentration, 10 μg/ml) was added, and cells were placed on ice until assayed for β-galactosidase activity (Miller J H (1972) Experiments in molecular genetics. [Cold Spring Harbor, N.Y.]: Cold Spring Harbor Laboratory). β-Galactosidase assays were repeated at least three times and fold repression was calculated by dividing the β-galactosidase activity of a ΔarcA strain by the activity of an arcA⁺ strain. […]

In a further data set the target is T2, ArcA D54E (Escherichia coli, UniProt P0A9Q1 P0A9Q1:1-238, D54E).
T2 sequence: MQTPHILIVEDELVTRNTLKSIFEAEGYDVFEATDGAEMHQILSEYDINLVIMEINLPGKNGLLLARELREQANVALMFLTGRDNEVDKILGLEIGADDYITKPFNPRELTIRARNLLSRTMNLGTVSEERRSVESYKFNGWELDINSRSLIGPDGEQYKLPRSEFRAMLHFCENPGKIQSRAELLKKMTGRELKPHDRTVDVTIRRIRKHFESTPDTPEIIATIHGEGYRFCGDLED
In words: cell_activity; anaerobic; aerobic repression above wt ArcA. From the text:
To test whether the enhanced repression of P₁idcdA with mutant ArcA binding sites is still dependent on phosphorylation, the aspartate residue at position 54 (site of phosphorylation) in the chromosomal copy of arcA was mutated to yield either alanine or glutamate, preventing phosphorylation from ArcB. The D54A variant reduced the repression of all P1icdA-lacZ constructs compared to that with the wt protein under both aerobic and anaerobic growth conditions (FIG. 5A). […] Thus, the elevated aerobic repression with the strengthened ArcA binding sites appears to result from increased occupancy of the small amount of ArcA-P likely present during aerobic conditions.
β-galactosidase assays—All strains were grown in MOPS minimal medium (Neidhardt et al., 1974) with 0.2% glucose at 37° C. and sparged with a gas mix of 95% N₂ and 5% CO₂ (anaerobic) or 70% N₂, 5% CO₂, and 25% O₂ (aerobic). Cells were harvested during mid-log growth (OD₆₀₀ of ˜0.3 on a Perkin Elmer Lambda 25 UV/Vis Spectrophotometer). […] Standard errors for data plotted as ‘fold repression’ were calculated using a propagation of standard error formula (Ku, J. Res. National Bureau of Standards 70C:263-273 (1966)).

Data set [4] concerns the target T1, ArcA (chromosomal). The experiment in a line: cell_activity; anaerobic; aerobic 7-fold repression. The method, then: as §1, §2
In data set [5] the target is T3, ArcA-P (phosphorylated ArcA) (Escherichia coli, UniProt P0A9Q1 P0A9Q1:1-238).
T3 sequence: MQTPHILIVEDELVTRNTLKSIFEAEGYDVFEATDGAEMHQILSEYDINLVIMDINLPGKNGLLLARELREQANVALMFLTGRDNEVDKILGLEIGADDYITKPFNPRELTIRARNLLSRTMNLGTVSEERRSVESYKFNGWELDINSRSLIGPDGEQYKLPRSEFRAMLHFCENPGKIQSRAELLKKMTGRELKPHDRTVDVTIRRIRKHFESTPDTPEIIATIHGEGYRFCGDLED
In words: footprint; all four DRs protected; apparent affinity higher than wt; narrow range (<4-fold) of ArcA-P. The following applies: tags: His6 removed with TEV protease; phosphorylated with carbamyl phosphate; chain copies: 2 per two DR elements (inferred); label: 3' 32P (footprint). The method, then:
To determine whether adding a fourth DR element facilitates ArcA-P binding and increases the footprint length, a consensus DR element (5′-TGTTA-3′) (SEQ ID NO:2) was added at the same spacing (11 by center-to-center) to either the 3′ or the 5′ end of the three-DR ArcA binding site within the icdA promoter region and DNase I footprinting experiments were performed.
DNase I footprinting: icdA promoter fragments were isolated from pPK9476, pPK9477, pPK9908, pPK9909, pPK9913, pPK9914, and pPK15001 after digestion with XhoI and BamHI. Sequenase Version 2.0 (USB Scientific) was used to 3′ radiolabel the BamHI end of the fragment with [α-³²P]-dGTP (PerkinElmer). Labeled DNA fragments were isolated from a non-denaturing 5% acrylamide gel and were subsequently purified with Elutip-d™ columns (Schleicher and Schuell). ArcA was phosphorylated by incubating with 50 mM disodium carbamyl phosphate (Sigma Aldrich) in 50 mM Tris, pH 7.9, 150 mM NaCl, and 10 mM MgCl₂ for 1 hour at 30° C. (Lynch & Lin, J. Bacteria 178:6238-6249 (1996)) and immediately used in the binding assays. Footprinting assays were performed by incubating phosphorylated ArcA with labeled DNA (˜5 nM) for 10 minutes at 30° C. in 40 mM Tris (pH 7.9), 30 mM KCl, 100 μg/ml BSA and 1 mM DTT followed by the addition of 2 μg/ml DNase I (Worthington) for 30 seconds.

Data set [6] deals with T1, ArcA (chromosomal). In words: cell_activity; anaerobic; aerobic about 2.5-fold repression. The method, then:
as §1, §2

Data set [7] concerns the target T1, ArcA (chromosomal). The experiment in a line: cell_activity; anaerobic. As to the method: as §1, §2
This is another data set of the same source.

For data set [8], the target named is T1, ArcA (chromosomal). In words: cell_activity; aerobic; anaerobic repression similar to consensus DR3 alone. As to the method:
as §1, §2

B1: icdA P1 wt (dsDNA)
DNA 1: AGAGCAATTTTTTGTTAATGATTTGTAATTGGCTTGTCAATACTACCCTATTGT
DNA 2: ACAATAGGGTAGTATTGACAAGCCAATTACAAATCATTAACAAAAAATTGCTCT
In the data set with ArcA (chromosomal) [1], B1 displayed an activity of 14 fold repression.

B2: icdA P1 5' DR4 (dsDNA)
DNA 1: ATGTTAATTTTTTGTTAATGATTTGTAATTGGCTTGTCAATACTACCCTATTGT
DNA 2: ACAATAGGGTAGTATTGACAAGCCAATTACAAATCATTAACAAAAAATTAACAT
Consider B2, for which the activity with ArcA (chromosomal) [2] is 8 fold increase in repression vs wt.

B3: icdA P1 DR3 GT->CA (dsDNA)
DNA 1: AGAGCAATTTTTTGTTAATGATTTGTAATTGGCTTCACAATACTACCCTATTGT
DNA 2: ACAATAGGGTAGTATTGTGAAGCCAATTACAAATCATTAACAAAAAATTGCTCT
For B3, in the data set with ArcA (chromosomal) [3], the activity was ~3.5 fold loss in repression vs wt.

B4: icdA P1 DR3 C->T (dsDNA)
DNA 1: AGAGCAATTTTTTGTTAATGATTTGTAATTGGCTTGTTAATACTACCCTATTGT
DNA 2: ACAATAGGGTAGTATTAACAAGCCAATTACAAATCATTAACAAAAAATTGCTCT
Take B4: the activity with ArcA D54E is 2 fold reduction in repression vs wt ArcA; with ArcA (chromosomal) [4] it was 6 fold increase in repression vs wt.

B5: icdA P1 3' DR4 (dsDNA)
DNA 1: AGAGCAATTTTTTGTTAATGATTTGTAATTGGCTTGTCAATACTATGTTATTGT
DNA 2: ACAATAACATAGTATTGACAAGCCAATTACAAATCATTAACAAAAAATTGCTCT
With B5, the binding result in data set [5] is given as “binds”.

B6: icdA P1 DR2 A->T (dsDNA)
DNA 1: AGAGCAATTTTTTGTTAATGATTTGTTATTGGCTTGTCAATACTACCCTATTGT
DNA 2: ACAATAGGGTAGTATTGACAAGCCAATAACAAATCATTAACAAAAAATTGCTCT
As to B6, the activity with ArcA (chromosomal) [6] is 3 fold increase in repression vs wt.

B7: icdA P1 DR2 A->T, DR3 GT->CA (dsDNA)
DNA 1: AGAGCAATTTTTTGTTAATGATTTGTTATTGGCTTCACAATACTACCCTATTGT
DNA 2: ACAATAGGGTAGTATTGTGAAGCCAATAACAAATCATTAACAAAAAATTGCTCT
As for B7, the activity with ArcA (chromosomal) [7] is 3 fold reduction in repression vs DR2 A->T.

B8: icdA P1 DR2 A->T, DR3 C->T (dsDNA)
DNA 1: AGAGCAATTTTTTGTTAATGATTTGTTATTGGCTTGTTAATACTACCCTATTGT
DNA 2: ACAATAGGGTAGTATTAACAAGCCAATAACAAATCATTAACAAAAAATTGCTCT
Molecule B8 registered an activity with ArcA (chromosomal) [8] of 21 fold repression.

Values taken from patent publication US20150197757, “OXYGEN-RESPONSIVE BACTERIAL GENE SWITCH” (Wisconsin Alumni Research Foundation, published 2015).
